Test results reported in paper PMC6715736.

Target: T1, His6-RacR (Escherichia coli JM83 (Rac prophage)) (UniProt P76062)
T1 sequence: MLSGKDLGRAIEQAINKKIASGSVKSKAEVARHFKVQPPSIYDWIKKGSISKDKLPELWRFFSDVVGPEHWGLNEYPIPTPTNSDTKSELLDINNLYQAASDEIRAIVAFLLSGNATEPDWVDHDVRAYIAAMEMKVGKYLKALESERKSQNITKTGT
Experiment: EMSA
Details: EMSA: 10 mM Tris-HCl pH 8.0, 1 mM EDTA, 0.1 M NaCl, 0.1 mM DTT, 5% glycerol, 10 ug/mL BSA, 50 ug/mL poly(dI-C), 28 C 40 min; 6% PAGE in 0.5x TBE

Sequence: GGTTCATCTCGGCTCCTGCTGCGGCGGTTGTCTTCGCGGATTTTGAAATAGAGATTTGTCAGATACGTCATTACGGCAATGATGATACCCACCAGCACGCCGATAGCGTTCCACTGCTCGGGGCTGTAGGCATTCAACATGCCGTTTAGGATGCTCCCGGCTGAAGCGCCATAGGCAGCACCAGTGGTTAGTTTGTCCATGCGATACATACTCTCACCTCGCTTTGTGCGAGTGCTGTTGCT (double strand) [lysN* probe]
- binding: binds
